In US20210087556:

Tests used:
[1] = molecular target: GST-fusion SMAD3 protein (Sigma-Aldrich Co. LLC.) (UniProt P84022)
[2] = molecular target: FLAG-tag-labeled human SMAD3, expressed in LL29 cells from expression vector pEZ-M11 Flag-hSmad3 (UniProt P84022)
Chain of FLAG-tag-labeled human SMAD3, expressed in LL29 cells from expression vector pEZ-M11 Flag-hSmad3 (P84022 whole entry, looked up): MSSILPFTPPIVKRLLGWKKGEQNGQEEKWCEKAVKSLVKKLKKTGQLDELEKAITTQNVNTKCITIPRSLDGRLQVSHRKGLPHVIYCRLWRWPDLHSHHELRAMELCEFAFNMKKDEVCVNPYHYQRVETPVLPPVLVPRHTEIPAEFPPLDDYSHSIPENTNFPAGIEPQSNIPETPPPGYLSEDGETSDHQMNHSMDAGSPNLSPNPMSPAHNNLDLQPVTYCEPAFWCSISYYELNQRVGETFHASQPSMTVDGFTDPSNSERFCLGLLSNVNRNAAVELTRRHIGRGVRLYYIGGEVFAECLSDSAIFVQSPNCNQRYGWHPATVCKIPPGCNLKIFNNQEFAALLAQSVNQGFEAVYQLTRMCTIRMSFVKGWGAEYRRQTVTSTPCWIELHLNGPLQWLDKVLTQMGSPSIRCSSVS

Chain of GST-fusion SMAD3 protein (Sigma-Aldrich Co. LLC.) (P84022 whole entry, looked up, the tested form may be a part): as the sequence (P84022 whole entry, looked up) above
Chain of His-fusion NEK6 protein (Eurofins Scientific SE) (chain, as listed by the source): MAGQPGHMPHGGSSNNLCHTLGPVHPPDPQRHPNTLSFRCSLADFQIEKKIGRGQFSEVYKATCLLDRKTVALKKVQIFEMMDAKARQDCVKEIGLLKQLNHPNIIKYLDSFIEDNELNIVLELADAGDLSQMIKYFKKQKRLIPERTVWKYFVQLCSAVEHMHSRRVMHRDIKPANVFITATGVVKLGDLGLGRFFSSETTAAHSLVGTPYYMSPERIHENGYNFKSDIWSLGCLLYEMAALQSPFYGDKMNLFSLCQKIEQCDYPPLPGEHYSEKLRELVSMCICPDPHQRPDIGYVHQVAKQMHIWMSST

Substance | amount of phosphorylated SMAD3 (Western blot after in vitro kinase reaction with purified proteins) [1] | amount of phosphorylated SMAD3 protein (Western blot of anti-FLAG coimmunoprecipitate) [2]
His-fusion NEK6 protein (Eurofins Scientific SE) | By using NEK6 protein, the amount of phosphorylated SMAD3 was elevated. | –
human NEK6 protein (NIMA-related serine/threonine kinase 6), expressed in LL29 cells from expression vector pEZ-M02 Nek6 | – | transfection of a human NEK6 expression vector caused the amount of phosphorylated SMAD3 protein to be elevated
